In patent US20110142840A1 (ONCOMED PHARMACEUTICALS, published 2011):

Experiments:
[1] = target: T1, human MET Receptor on cells (human, UniProt P08581 25-1390); experiment: cell-based or functional assay
[2] = target: T2, recombinant human MET extracellular domain (MET ECD) (human, UniProt P08581 25-932); experiment: BIAcore 2000; MET ECD amine-coupled on CM5 chip, antibody injected at 100-1 nM, global fit
T2 construct: extracellular domain; also called full-length MET-ECD molecule
Procedure: (§1) Fab and IgG affinities were determined using a BIAcore 2000 instrument. Briefly, MET ECD was immobilized on a CM5 chip using standard amine based chemistry (NHS/EDC). For each Fab and IgG, different concentrations (100-1 nM) were injected over the MET ECD surface and kinetic data were collected over time. The data was fit using the simultaneous global fit equation to yield affinity constants (KD) for each Fab and IgG.

[3] = target: T3, recombinant human MET PSI-IPT domains (human, UniProt P08581 516-932, limits assumed); experiment: plate binding assay, 384-well plates coated with recombinant domains
T3 construct: domain: PSI-IPT; also called PSI-IST (as printed once)

[4] = target: T4, recombinant human MET/Fc chimeric protein (R&D Systems) (human, UniProt P08581 25-932); experiment: HGF/MET blocking ELISA, experiment of Example 3; unit from the legend of FIG. 3; FIG. 3A experiment, antibody alone
T4 construct: extracellular domain; Bought reagent; also called MET Receptor extracellular domain; not shown: Fc part (detected with anti-human Fc) and any linker of the bought chimera

[5] = target: T2, recombinant human MET extracellular …; experiment: BIAcore 2000; MET ECD amine-coupled on CM5 chip, antibody injected at 100-1 nM, global fit; Dimer, not IgG
Procedure: as §1

[6] = target: T4, recombinant human MET/Fc chimeric …; experiment: HGF/MET blocking ELISA (Dm=IC50): antibody preincubated with MET/Fc, added to HGF-coated wells; unit from the legend of FIG. 2; FIG. 2A, B experiment
Procedure: (§2) After washing the wells once with 0.2% PBS/T, they were blocked with 5% PBS/milk for one hour. […] Washing was repeated as described above. Fifty microliters of substrate were added per well until a yellow color developed. The reaction was then stopped with 50 μL of 1 M H₂SO₄ and the absorbance at 450 nm determined with a standard plate reader.

[7] = target: T4, recombinant human MET/Fc chimeric …; experiment: HGF/MET blocking ELISA: antibody preincubated with MET/Fc, added to HGF-coated wells; unit from the legend of FIG. 1
Procedure: as §2

[8] = target: T1, human MET Receptor on cells; experiment: FACS on GTL-16 cells; AF647-R28 fixed at 360 nM, against AF647-R28 without R13
[9] = target: T5, recombinant human MET SEMA domain (human, UniProt P08581 27-515); experiment: plate binding assay, 384-well plates coated with recombinant domains
T5 construct: domain: SEMA; also called SEMA domain of MET-ECD
T5 sequence (P08581 27-515): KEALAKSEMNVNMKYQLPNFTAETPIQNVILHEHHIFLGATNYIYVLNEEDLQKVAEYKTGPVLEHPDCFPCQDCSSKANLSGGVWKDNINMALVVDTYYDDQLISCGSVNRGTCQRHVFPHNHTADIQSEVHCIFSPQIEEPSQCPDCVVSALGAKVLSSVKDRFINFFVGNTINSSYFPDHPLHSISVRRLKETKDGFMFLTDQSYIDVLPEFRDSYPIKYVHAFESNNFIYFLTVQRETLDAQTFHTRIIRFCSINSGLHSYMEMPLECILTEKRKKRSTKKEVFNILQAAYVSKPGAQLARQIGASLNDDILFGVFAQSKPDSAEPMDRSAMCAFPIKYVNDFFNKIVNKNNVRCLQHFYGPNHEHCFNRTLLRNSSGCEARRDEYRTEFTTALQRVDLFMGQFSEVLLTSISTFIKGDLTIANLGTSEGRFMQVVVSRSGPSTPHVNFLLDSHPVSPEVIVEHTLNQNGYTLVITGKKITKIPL

T4 sequence (P08581 25-932, change not shown): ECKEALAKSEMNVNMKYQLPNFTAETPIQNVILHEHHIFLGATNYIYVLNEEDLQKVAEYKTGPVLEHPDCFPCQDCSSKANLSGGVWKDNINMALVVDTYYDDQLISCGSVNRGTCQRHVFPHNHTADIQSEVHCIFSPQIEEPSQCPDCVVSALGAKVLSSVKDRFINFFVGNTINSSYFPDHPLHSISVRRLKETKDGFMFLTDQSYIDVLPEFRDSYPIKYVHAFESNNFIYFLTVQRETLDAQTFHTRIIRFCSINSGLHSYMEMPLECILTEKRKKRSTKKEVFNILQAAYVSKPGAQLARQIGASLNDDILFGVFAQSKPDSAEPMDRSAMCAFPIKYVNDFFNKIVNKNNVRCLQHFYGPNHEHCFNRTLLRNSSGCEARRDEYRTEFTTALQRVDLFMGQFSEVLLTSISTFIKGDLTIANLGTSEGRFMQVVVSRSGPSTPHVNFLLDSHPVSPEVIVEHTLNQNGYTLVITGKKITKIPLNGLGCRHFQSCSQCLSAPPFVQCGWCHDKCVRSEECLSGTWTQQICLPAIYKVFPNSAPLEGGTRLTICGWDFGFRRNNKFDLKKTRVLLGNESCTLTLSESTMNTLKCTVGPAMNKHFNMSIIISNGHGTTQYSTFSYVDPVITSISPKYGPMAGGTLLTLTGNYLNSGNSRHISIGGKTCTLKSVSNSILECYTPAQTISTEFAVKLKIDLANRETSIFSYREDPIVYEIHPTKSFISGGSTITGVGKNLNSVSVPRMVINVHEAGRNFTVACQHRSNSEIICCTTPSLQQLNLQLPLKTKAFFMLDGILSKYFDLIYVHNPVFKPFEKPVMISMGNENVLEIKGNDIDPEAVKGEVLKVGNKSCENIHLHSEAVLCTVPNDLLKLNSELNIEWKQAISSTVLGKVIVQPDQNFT
T2 sequence (P08581 25-932): as the sequence (P08581 25-932, change not shown) above
T1 sequence (P08581 25-1390): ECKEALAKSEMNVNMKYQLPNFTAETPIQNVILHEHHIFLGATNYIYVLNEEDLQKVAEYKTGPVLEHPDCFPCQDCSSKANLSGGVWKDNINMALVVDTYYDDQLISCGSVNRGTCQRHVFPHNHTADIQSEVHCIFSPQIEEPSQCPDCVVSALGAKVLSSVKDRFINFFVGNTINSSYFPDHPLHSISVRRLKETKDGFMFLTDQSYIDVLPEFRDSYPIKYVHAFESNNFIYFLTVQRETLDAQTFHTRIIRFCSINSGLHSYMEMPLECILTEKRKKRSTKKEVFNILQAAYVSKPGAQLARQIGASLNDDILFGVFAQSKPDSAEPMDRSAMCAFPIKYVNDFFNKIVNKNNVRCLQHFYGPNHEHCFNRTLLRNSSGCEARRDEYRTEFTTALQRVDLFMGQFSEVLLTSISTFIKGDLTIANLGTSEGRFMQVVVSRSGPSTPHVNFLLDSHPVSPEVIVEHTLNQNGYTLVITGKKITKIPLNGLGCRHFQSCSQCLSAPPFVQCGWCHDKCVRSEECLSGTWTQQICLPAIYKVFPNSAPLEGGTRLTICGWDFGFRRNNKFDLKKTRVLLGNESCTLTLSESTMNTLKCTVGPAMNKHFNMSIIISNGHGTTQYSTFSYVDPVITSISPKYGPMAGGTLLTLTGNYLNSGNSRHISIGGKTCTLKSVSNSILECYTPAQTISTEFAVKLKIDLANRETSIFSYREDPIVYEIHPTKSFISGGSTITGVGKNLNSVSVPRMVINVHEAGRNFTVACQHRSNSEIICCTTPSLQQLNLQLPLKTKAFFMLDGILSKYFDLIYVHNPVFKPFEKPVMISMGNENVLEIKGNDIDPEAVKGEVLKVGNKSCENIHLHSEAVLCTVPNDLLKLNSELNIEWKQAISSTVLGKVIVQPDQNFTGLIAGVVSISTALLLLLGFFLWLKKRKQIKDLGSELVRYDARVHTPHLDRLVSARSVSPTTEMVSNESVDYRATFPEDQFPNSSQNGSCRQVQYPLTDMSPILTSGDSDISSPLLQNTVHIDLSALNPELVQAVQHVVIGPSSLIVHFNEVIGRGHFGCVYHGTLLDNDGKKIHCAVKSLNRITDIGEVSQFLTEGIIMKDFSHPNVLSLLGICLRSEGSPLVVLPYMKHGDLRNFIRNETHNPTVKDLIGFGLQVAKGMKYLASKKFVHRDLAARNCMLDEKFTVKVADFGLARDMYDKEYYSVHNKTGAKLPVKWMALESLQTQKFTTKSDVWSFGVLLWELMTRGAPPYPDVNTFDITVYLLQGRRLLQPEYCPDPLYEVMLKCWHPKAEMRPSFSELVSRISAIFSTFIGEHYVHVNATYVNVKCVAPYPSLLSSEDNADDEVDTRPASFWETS
T3 sequence (P08581 516-932 limits assumed): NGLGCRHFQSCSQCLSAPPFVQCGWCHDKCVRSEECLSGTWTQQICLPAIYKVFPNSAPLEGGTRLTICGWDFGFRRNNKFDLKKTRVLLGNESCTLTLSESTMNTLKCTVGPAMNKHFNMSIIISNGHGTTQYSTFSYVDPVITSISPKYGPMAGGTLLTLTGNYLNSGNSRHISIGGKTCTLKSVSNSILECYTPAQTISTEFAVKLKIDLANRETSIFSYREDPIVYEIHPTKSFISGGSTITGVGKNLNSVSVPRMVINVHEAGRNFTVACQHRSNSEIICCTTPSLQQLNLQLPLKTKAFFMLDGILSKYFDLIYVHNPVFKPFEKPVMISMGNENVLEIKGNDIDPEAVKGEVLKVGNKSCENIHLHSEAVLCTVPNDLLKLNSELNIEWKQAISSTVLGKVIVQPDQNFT

Binder	Kd [2] [nM]	binding result [3]	IC50 [4] [nM]	IC50 [6] [nM]	IC50 [7] [nM]	EC50 of antibody-dependent cellular cytotoxicity (ADCC) on GTL-16 cells [1] [nM]	further results
13-MET human IgG1 antibody (antibody, V domains shown, Fab variable regions combined with human constant regions to give a full human IgG1; ATCC deposit PTA-9148; also called 13-MET IgG; MET-13 IgG) VH: QVQLKESGPALVKPTQTLTLTCTFSGFSLSTSGMVVSWIRQPPGKALEWLAFISWDDDKYYSTSLKTRLTISKDTSKNQVVLTMTNMDPVDTATYYCAREPGRYGGYYFDYWGQGTLVTVSS VL: DIQMTQSPSSLSASVGDRVTITCRASQTISHYLAWYQQKPGKAPKLLIYAASILQSGVPSRFSGSGSGTDFTLTISSLQPEDFAVYYCQQYSGFPVTFGQGTKVEIKR	0.9	no binding				479	
9-MET (divalent dimer of two 13-MET Fabs linked via a helix-loop-helix motif) (other, also called 9d; dimeric Fab-dHLX of Fab 13) VH: QVQLKESGPALVKPTQTLTLTCTFSGFSLSTSGMVVSWIRQPPGKALEWLAFISWDDDKYYSTSLKTRLTISKDTSKNQVVLTMTNMDPVDTATYYCAREPGRYGGYYFDYWGQGTLVTVSS VL: DIQMTQSPSSLSASVGDRVTITCRASQTISHYLAWYQQKPGKAPKLLIYAASILQSGVPSRFSGSGSGTDFTLTISSLQPEDFAVYYCQQYSGFPVTFGQGTKVEIKRT			8.88	5.08			Kd [5]: 0.56 nM
13-MET monovalent Fab (Fab, V domains shown, Monovalent human Fab from the Morphosys HuCAL GOLD Fab library; the Fab constant parts are not; also called Fab-13; R13) VH: QVQLKESGPALVKPTQTLTLTCTFSGFSLSTSGMVVSWIRQPPGKALEWLAFISWDDDKYYSTSLKTRLTISKDTSKNQVVLTMTNMDPVDTATYYCAREPGRYGGYYFDYWGQGTLVTVSS VL: DIQMTQSPSSLSASVGDRVTITCRASQTISHYLAWYQQKPGKAPKLLIYAASILQSGVPSRFSGSGSGTDFTLTISSLQPEDFAVYYCQQYSGFPVTFGQGTKVEIKR					12.4		
19-MET (divalent dimer of two 28-MET Fabs linked via a helix-loop-helix motif) (other, also called 19d; dimeric Fab-dHLX of Fab 28) VH: QVQLQESGPGLVKPGETLSLTCTVSGGSISGYYWSWIRQAPGKGLEWIGEIYYAGSTLYNPSLKGRVTISVDTSKNQFSLKLSSVTAEDTAVYYCARHYGLDWFGDTGMDVWGQGTLVTVSS VL: DIELTQPPSVSVAPGQSITISCSGDNLGDKYVHWYQQKPGQAPVLVIYDDNERPSGIPERFSGSNSGNTATLTISGTQAEDEADYYCSAYGSHSGTVFGGGTKLTVLG	8.7		106	44.3			

Continued, in another order:

Kd [2] [nM]	binding result [3]	IC50 [4] [nM]	IC50 [6] [nM]	IC50 [7] [nM]	Binder	EC50 of antibody-dependent cellular cytotoxicity (ADCC) on GTL-16 cells [1] [nM]	further results
47.9	no binding				28-MET human IgG1 antibody (antibody, V domains shown, Fab variable regions combined with human constant regions to give a full human IgG1; ATCC deposit PTA-9149; also called 28-MET IgG; MET-28 IgG) VH: QVQLQESGPGLVKPGETLSLTCTVSGGSISGYYWSWIRQAPGKGLEWIGEIYYAGSTLYNPSLKGRVTISVDTSKNQFSLKLSSVTAEDTAVYYCARHYGLDWFGDTGMDVWGQGTLVTVSS VL: DIELTQPPSVSVAPGQSITISCSGDNLGDKYVHWYQQKPGQAPVLVIYDDNERPSGIPERFSGSNSGNTATLTISGTQAEDEADYYCSAYGSHSGTVFGGGTKLTVLG	3770	fold increase of ΔMFI with 20 nM unlabeled R13 [8]: 2.6 fold; binding result [9]: no binding
49				36.1	28-MET monovalent Fab (Fab, V domains shown, Monovalent human Fab from the Morphosys HuCAL GOLD Fab library; the Fab constant parts are not; also called Fab-28; R28) VH: QVQLQESGPGLVKPGETLSLTCTVSGGSISGYYWSWIRQAPGKGLEWIGEIYYAGSTLYNPSLKGRVTISVDTSKNQFSLKLSSVTAEDTAVYYCARHYGLDWFGDTGMDVWGQGTLVTVSS VL: DIELTQPPSVSVAPGQSITISCSGDNLGDKYVHWYQQKPGQAPVLVIYDDNERPSGIPERFSGSNSGNTATLTISGTQAEDEADYYCSAYGSHSGTVFGGGTKLTVLG		
